Like-named read-outs stand apart in the source and are kept apart here. Non-standard residues stand in square brackets, D forms with d. *: point of attachment. Succinimide(1-Et,3-yl) = CCN1C(=O)CC(*)C1=O
Assays:
rat NMUR1-ATG [1] = molecular target: T1, rat NMUR1-ATG (rat, UniProt Q9JJI5 1-425); test: cell-based or functional assay
T1 sequence (looked up): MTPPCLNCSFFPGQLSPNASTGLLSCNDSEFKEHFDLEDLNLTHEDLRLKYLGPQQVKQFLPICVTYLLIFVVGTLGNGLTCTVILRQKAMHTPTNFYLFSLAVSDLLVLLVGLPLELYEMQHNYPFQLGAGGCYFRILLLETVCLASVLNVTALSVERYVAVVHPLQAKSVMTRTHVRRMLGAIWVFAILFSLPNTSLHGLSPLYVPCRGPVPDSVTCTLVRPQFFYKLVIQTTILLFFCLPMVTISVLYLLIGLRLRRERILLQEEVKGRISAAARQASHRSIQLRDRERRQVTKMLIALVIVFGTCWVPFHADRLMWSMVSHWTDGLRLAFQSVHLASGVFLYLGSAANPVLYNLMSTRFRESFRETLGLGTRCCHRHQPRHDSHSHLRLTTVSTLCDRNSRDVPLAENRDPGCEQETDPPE

rat NMUR2 [2] = molecular target: T2, rat NMUR2 (rat, UniProt Q9ESQ4 1-395); test: cell-based or functional assay
human NMUR1 [3] = molecular target: T3, human NMUR1 (human, UniProt Q9HB89 1-426); test: cell-based or functional assay
T3 sequence (looked up): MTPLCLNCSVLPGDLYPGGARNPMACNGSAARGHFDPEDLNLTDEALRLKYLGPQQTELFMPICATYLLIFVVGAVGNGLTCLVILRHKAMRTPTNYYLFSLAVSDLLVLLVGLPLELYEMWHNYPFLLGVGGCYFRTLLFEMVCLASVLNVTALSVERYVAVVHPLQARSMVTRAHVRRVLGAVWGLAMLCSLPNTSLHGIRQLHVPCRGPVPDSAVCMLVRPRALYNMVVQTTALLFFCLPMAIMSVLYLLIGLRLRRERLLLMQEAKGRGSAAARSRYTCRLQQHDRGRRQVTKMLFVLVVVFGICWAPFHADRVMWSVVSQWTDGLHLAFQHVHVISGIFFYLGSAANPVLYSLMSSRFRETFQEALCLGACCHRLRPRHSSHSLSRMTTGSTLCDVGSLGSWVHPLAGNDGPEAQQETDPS

human NMUR2 [4] = molecular target: T4, human NMUR2 (human, UniProt Q9GZQ4 1-415); test: cell-based or functional assay
human NMUR1 [5] = molecular target: T3, human NMUR1; test: 125I-hNMU-25 displacement, HEK cell membranes
Protocol: (§1) Confluent cell monolayers expressing NMU receptors (the HEK cells described above) were harvested with phosphate buffered saline, collected by centrifugation, and resuspended in membrane buffer (50 mM TrisCl pH 7.4, 5 mM MgCl₂, 1× Protease Inhibitor Cocktail, 10 μM phosphoramidon). After the cell pellet was homogenized, the solution was centrifuged at 18,000 rpm for 20 minutes at 4° C. The pellet was resuspended in membrane buffer to yield a final concentration of 0.5-5 μg/μL of membrane and stored at −80° C.
(§2) Experiments were performed in assay buffer (25 mM TrisCl, pH 7.4, 10 mM MgCl₂, 2mM EDTA, 1× Protease Inhibitor Cocktail, 100 μg/mL Bacitricin, 10 μM phosphoramidon) in 200 μL volumes in a 96-well format using 2-5 μg of membrane and […] ¹²⁵I-hNMU-25 (about 12,000 cpm/well). For non-specific binding, 1 μM hNMU-25 was added. About 5 μL of peptides were added to measure antagonist activity, and the entire reaction was incubated at room temperature with shaking for 80 minutes. The reaction was terminated by rapid filtration through 0.3% poly-ethylenimine presoaked Millipore 96-well filter plates and washed with ice-cold buffer (5 mM TrisCl pH 7.4, 10 mM MgCl₂, 2.5 mM EDTA, 0.04% Triton X-100). Plates were air-dried overnight at room temperature and recovered radioactivity was determined by standard scintillation counting. IC₅₀ values were determined using GraphPad Prism software.
(§3) Concentration-response curves and radioligand-binding data were fitted using Prism (GraphPad Software). Results are summarized below in Tables 8 and 9.

human NMUR2 [6] = molecular target: T4, human NMUR2; test: 125I-hNMU-25 displacement, HEK cell membranes
Protocol: as §1, §2, §3

mouse NMUR1-CTG [7] = molecular target: T5, mouse NMUR1-CTG (mouse, UniProt O55040 1-428); test: cell-based or functional assay
T5 sequence (looked up): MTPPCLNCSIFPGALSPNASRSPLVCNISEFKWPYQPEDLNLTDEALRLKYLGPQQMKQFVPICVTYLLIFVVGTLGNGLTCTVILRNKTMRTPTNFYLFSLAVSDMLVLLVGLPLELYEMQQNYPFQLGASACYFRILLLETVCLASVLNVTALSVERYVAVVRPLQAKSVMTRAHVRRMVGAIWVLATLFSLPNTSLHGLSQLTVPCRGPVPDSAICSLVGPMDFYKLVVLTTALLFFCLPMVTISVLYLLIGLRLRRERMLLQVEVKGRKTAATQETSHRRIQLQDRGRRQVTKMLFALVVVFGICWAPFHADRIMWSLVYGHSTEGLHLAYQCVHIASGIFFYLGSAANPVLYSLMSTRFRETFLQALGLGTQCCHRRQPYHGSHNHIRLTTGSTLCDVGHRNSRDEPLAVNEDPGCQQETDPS

mouse NMUR2 [8] = molecular target: T6, mouse NMUR2 (mouse, UniProt Q8BZ39 1-395); test: cell-based or functional assay
mouse NMUR1-ATG [9] = molecular target: T7, mouse NMUR1-ATG (mouse, UniProt O55040 1-428); test: cell-based or functional assay
T7 sequence (looked up): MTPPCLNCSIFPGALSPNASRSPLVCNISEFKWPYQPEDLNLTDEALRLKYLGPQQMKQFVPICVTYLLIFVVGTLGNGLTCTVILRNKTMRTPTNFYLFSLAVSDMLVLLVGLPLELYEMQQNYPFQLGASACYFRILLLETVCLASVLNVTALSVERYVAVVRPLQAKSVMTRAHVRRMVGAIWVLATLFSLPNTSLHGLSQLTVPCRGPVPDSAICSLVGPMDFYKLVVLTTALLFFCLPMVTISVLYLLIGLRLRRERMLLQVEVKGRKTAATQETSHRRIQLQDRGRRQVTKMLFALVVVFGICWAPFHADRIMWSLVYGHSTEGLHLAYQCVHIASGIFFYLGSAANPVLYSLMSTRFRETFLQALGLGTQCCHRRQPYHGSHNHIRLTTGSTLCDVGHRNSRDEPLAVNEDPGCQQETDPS

human NMUR1 [10] = molecular target: T3, human NMUR1; test: cell-based or functional assay; remark: listed apart in the source
human NMUR2 [11] = molecular target: T4, human NMUR2; test: cell-based or functional assay; remark: listed apart in the source
rat NMUR1-TTG [12] = molecular target: T8, rat NMUR1-TTG (rat, UniProt Q9JJI5 1-425); test: cell-based or functional assay
T8 sequence (looked up): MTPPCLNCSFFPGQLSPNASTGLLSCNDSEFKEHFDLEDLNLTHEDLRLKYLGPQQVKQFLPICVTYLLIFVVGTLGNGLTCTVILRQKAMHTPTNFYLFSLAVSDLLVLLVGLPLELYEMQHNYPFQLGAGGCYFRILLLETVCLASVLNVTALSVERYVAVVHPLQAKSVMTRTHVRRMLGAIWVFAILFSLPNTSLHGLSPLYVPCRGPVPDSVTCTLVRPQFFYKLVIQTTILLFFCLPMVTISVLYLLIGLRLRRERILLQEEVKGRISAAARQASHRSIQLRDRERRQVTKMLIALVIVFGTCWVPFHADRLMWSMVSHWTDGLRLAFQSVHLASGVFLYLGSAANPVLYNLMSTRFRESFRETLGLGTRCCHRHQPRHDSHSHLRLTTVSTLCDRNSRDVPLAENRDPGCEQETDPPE

human NMUR1 [13] = molecular target: T3, human NMUR1; test: cell-based or functional assay; remark: listed apart in the source
mouse NMUR1-CTG [14] = molecular target: T5, mouse NMUR1-CTG; test: cell-based or functional assay; remark: listed apart in the source
rat NMUR1-TTG [15] = molecular target: T8, rat NMUR1-TTG; test: cell-based or functional assay; remark: listed apart in the source
mouse NMUR2 [16] = molecular target: T6, mouse NMUR2; test: cell-based or functional assay; remark: listed apart in the source
human NMUR2 [17] = molecular target: T4, human NMUR2; test: cell-based or functional assay; remark: listed apart in the source
rat NMUR1-ATG [18] = molecular target: T1, rat NMUR1-ATG; test: cell-based or functional assay; remark: listed apart in the source
rat NMUR2 [19] = molecular target: T2, rat NMUR2; test: cell-based or functional assay; remark: listed apart in the source
mouse NMUR1-ATG [20] = molecular target: T7, mouse NMUR1-ATG; test: cell-based or functional assay; remark: listed apart in the source
human NMUR1 [21] = molecular target: T3, human NMUR1; test: 125I-hNMU-25 displacement, cell membranes
mouse NMUR1-CTG [22] = molecular target: T5, mouse NMUR1-CTG; test: 125I-hNMU-25 displacement, cell membranes
rat NMUR1-TTG [23] = molecular target: T8, rat NMUR1-TTG; test: 125I-hNMU-25 displacement, cell membranes
mouse NMUR2 [24] = molecular target: T6, mouse NMUR2; test: 125I-hNMU-25 displacement, cell membranes
human NMUR2 [25] = molecular target: T4, human NMUR2; test: 125I-hNMU-25 displacement, cell membranes
rat NMUR1-ATG [26] = molecular target: T1, rat NMUR1-ATG; test: 125I-hNMU-25 displacement, cell membranes
rat NMUR2 [27] = molecular target: T2, rat NMUR2; test: 125I-hNMU-25 displacement, cell membranes
mouse NMUR1-ATG [28] = molecular target: T7, mouse NMUR1-ATG; test: 125I-hNMU-25 displacement, cell membranes

T4 sequence (Q9GZQ4 whole entry): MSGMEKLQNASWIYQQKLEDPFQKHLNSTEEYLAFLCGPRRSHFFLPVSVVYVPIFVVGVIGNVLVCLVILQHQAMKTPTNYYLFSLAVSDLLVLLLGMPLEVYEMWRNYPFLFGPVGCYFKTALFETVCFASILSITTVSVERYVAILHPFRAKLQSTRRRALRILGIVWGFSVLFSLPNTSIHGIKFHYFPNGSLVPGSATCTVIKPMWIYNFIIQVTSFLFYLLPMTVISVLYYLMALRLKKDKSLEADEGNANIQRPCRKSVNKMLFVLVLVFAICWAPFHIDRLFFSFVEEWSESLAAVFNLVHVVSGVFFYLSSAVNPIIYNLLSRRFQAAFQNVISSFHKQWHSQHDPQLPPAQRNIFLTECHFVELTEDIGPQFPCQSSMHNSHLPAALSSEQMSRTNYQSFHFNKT
T2 sequence (Q9ESQ4 whole entry): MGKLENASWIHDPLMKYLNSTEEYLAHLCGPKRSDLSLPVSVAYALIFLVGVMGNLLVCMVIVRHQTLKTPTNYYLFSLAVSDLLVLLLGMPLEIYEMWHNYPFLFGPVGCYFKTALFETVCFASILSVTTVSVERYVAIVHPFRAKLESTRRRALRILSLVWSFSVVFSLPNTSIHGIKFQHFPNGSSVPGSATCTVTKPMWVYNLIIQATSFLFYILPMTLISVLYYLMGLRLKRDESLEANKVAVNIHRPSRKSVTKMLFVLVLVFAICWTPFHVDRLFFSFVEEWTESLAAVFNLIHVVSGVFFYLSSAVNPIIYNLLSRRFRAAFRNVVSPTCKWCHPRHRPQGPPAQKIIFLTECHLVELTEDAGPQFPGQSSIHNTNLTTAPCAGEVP
T6 sequence (Q8BZ39 whole entry): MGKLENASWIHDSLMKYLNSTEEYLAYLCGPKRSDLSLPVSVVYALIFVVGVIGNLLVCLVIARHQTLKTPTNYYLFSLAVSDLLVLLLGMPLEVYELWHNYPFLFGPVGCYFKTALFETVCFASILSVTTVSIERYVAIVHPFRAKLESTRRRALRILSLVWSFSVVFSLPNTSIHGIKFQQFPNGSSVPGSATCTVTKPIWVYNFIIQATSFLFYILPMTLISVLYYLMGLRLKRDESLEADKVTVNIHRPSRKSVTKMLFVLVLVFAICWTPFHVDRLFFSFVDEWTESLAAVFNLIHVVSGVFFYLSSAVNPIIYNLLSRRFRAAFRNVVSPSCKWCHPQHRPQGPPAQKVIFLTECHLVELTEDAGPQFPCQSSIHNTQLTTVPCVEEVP

## Ac-C(Succinimide(1-Et,3-yl))FRVDEEFQSPFASQSRGYFLFRPRN-NH2 [NMU8]
Rat NMUR1-ATG [1]
  % Activity (FLIPR): 97.2%
  EC50 (FLIPR): 36.7 nM
Rat NMUR2 [2]
  % Activity (FLIPR): 94.7%
  EC50 (FLIPR): 45.1 nM
Human NMUR1 [3]
  % Activity (FLIPR): 99.1%
  EC50 (FLIPR): 10.7 nM
Human NMUR2 [4]
  % Activity (FLIPR): 100%
  EC50 (FLIPR): 5.2 nM
Human NMUR1 [5]
  % activity (binding): 100%
  IC50: 2.4 nM
Human NMUR2 [6]
  % activity (binding): 100%
  IC50: 0.3 nM
Mouse NMUR1-CTG [7]
  % Activity (FLIPR): 100%
  EC50 (FLIPR): 15.5 nM
Mouse NMUR2 [8]
  % Activity (FLIPR): 100%
  EC50 (FLIPR): 1.8 nM
Mouse NMUR1-ATG [9]
  % Activity (FLIPR): 100%
  EC50 (FLIPR): 6.4 nM
Human NMUR1 [10]
  % activity: 100%
  EC50: 1.36 nM
Human NMUR2 [11]
  % activity: 104%
  EC50: 2.9 nM

B1: NMU13 (peptide)
peptide: Ac-C(Succinimide(1-Et,3-yl))FRVDEEFQSPFASQSRGYF[dA]WRPRN-NH2
SMILES: CCN1C(=O)CC(SC[C@H](NC(C)=O)C(=O)N[C@@H](Cc2ccccc2)C(=O)N[C@@H](CCCNC(=N)N)C(=O)N[C@H](C(=O)N[C@@H](CC(=O)O)C(=O)N[C@@H](CCC(=O)O)C(=O)N[C@@H](CCC(=O)O)C(=O)N[C@@H](Cc2ccccc2)C(=O)N[C@@H](CCC(N)=O)C(=O)N[C@@H](CO)C(=O)N2CCC[C@H]2C(=O)N[C@@H](Cc2ccccc2)C(=O)N[C@@H](C)C(=O)N[C@@H](CO)C(=O)N[C@@H](CCC(N)=O)C(=O)N[C@@H](CO)C(=O)N[C@@H](CCCNC(=N)N)C(=O)NCC(=O)N[C@@H](Cc2ccc(O)cc2)C(=O)N[C@@H](Cc2ccccc2)C(=O)N[C@H](C)C(=O)N[C@@H](Cc2c[nH]c3ccccc23)C(=O)N[C@@H](CCCNC(=N)N)C(=O)N2CCC[C@H]2C(=O)N[C@@H](CCCNC(=N)N)C(=O)N[C@@H](CC(N)=O)C(N)=O)C(C)C)C1=O
notes: also called NMUR1 selective peptide NMU13
Rat NMUR1-TTG [12]
  % Activity (FLIPR): 94.6%
  EC50 (FLIPR): 115 nM
Rat NMUR1-ATG [1]
  % Activity (FLIPR): 100%
  EC50 (FLIPR): 9.5 nM
Rat NMUR2 [2]
  % Activity (FLIPR): 0%
  EC50 (FLIPR): > 1000 nM
Human NMUR1 [3]
  % Activity (FLIPR): 100%
  EC50 (FLIPR): 4.8 nM
Human NMUR2 [4]
  % Activity (FLIPR): 0%
  EC50 (FLIPR): > 1000 nM
Human NMUR1 [13]
  % activity: 91%
  IC50 (nM), functional: 1.7 nM
Mouse NMUR1-CTG [14]
  % activity: 88%
  IC50 (nM), functional: 14 nM
Rat NMUR1-TTG [15]
  % activity: 94%
  IC50 (nM), functional: 107 nM
Mouse NMUR2 [16]
  % activity: 27%
  IC50 (nM), functional: > 1000 nM
Human NMUR2 [17]
  % activity: 0%
  IC50 (nM), functional: > 1000 nM
Rat NMUR1-ATG [18]
  % activity: 92%
  IC50 (nM), functional: 15.8 nM
Rat NMUR2 [19]
  % activity: 24%
  IC50 (nM), functional: > 1000 nM
Mouse NMUR1-ATG [20]
  % activity: 96%
  IC50 (nM), functional: 7.8 nM
Mouse NMUR1-CTG [7]
  % Activity (FLIPR): 73.6%
  EC50 (FLIPR): 142 nM
Mouse NMUR2 [8]
  % Activity (FLIPR): 0%
  EC50 (FLIPR): > 1000 nM
Mouse NMUR1-ATG [9]
  % Activity (FLIPR): 98.6%
  EC50 (FLIPR): 35.8 nM
Human NMUR1 [21]
  % inhibition of NMU-25 binding: 100%
  IC50: 4.3 nM
Mouse NMUR1-CTG [22]
  % inhibition of NMU-25 binding: 100%
  IC50: 3.5 nM
Rat NMUR1-TTG [23]
  % inhibition of NMU-25 binding: 100%
  IC50: 3.24 nM
Mouse NMUR2 [24]
  % inhibition of NMU-25 binding: 30%
Human NMUR2 [25]
  % inhibition of NMU-25 binding: 48%
Rat NMUR1-ATG [26]
  % inhibition of NMU-25 binding: 100%
  IC50: 1.6 nM
Rat NMUR2 [27]
  % inhibition of NMU-25 binding: 0%
Mouse NMUR1-ATG [28]
  % inhibition of NMU-25 binding: 100%
  IC50: 5.4 nM
